{
  "source": "patent US20060204512A1",
  "about": "(VASGENE THERAPEUTICS, published 2006)",
  "target": "T1, EphB4 CF2 protein (ECD version with deleted globular domain, 6xHis tagged) (human, UniProt P54760 16-537)",
  "T1 construct": "The entry is the precursor",
  "T1 sequence": "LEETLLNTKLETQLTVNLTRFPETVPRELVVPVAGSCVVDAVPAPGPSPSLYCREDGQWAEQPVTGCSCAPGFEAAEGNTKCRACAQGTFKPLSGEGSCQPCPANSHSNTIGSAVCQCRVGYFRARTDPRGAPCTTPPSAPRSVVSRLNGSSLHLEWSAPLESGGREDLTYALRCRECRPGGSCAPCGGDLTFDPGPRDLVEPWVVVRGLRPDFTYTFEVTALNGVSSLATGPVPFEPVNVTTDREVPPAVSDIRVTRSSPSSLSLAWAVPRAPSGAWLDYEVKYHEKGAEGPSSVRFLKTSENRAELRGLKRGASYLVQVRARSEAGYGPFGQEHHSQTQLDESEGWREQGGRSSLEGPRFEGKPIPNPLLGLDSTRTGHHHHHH",
  "assay": "Ephrin B2-AP binding to B4 proteins immobilized on Ni2+ resin or nitrocellulose membrane",
  "procedure": "To confirm ability of the purified recombinant proteins to bind Ephrin B2, they were tested in an in vitro binding assay. As expected, GC, GCF1 and GCF2, but not CF2 are binding the cognate ligand Ephrin B2 as confirmed by interaction between Ephrin B2-alkaline phosphatase (Ephrin B2-AP) fusion protein with the B4 proteins immobilized on Ni²⁺ resin or on nitrocellulose membrane (FIG. 17).",
  "data": [
    {"binder": "B2EC-AP reagent (protein fusion of Ephrin B2 ectodomain with placental alkaline phosphatase) (ligand, UniProt P52799 28-229, looked up, extracellular domain; also called B2-AP; Ephrin B2-AP; not shown: placental alkaline phosphatase) IVLEPIYWNSSNSKFLPGQGLVLYPQIGDKLDIICPKVDSKTVGQYEYYKVYMVDKDQADRCTIKKENTPLLNCAKPDQDIKFTIKFQEFSPNLWGLEFQKNKDYYIISTSNGSLEGLDNQEGGVCQTRAMKILMKVGQDASSAGSTRNKDPTRRPELEAGTNGRSSTTSPFVKPNPGSSTDGNSAGHSGNNILGSEVALFA", "values": [
      {"measurement": "binding result", "value": "no binding"}
    ]}
  ]
}
